From US20220296690A1 (Pieris, published 2022) come the findings set out here.

The target in the experiment is T1, Recombinant human CTLA-4 (human, UniProt P16410 36-161, limits assumed).
T1 sequence (looked up): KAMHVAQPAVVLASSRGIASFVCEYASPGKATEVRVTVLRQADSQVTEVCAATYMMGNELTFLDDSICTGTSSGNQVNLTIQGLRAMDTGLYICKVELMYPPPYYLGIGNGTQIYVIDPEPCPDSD
In words: ELISA; recombinant human CTLA-4 coated at 5 µg/mL, T cell culture supernatant added, detected with rabbit anti-NGAL polyclonal antibody and goat anti-rabbit IgG-HRP. The procedure: FIG. 2: Detection of functional T-cell secreted CTLA-4 antagonist by ELISA. The supernatant of human peripheral blood T cells, mock-transduced or transduced with pSIN-(NFAT)6-αCTLA-4 and cultured under activatory conditions (cf. Example 1 and FIG. 1) was analyzed for the presence of functionally active CTLA-4 antagonist SEQ ID NO: 28 by ELISA. Recombinant human CTLA-4 was coated on an ELISA plate as described in Example 1, and culture supernatants of transduced and mock-transduced T cells were added. Plate-bound SEQ ID NO: 28 was detected by primary staining with an anti-NGAL polyclonal antibody from the rabbit, secondary staining using goat anti rabbit IgG-HRP and addition of a chromogenic HRP substrate as described in Example 1.
Supernatants were analyzed for the presence of functionally active Anticalin-based CTLA-4 antagonist by ELISA as described in the following: Recombinant human CTLA-4 at a concentration of 5 μg/mL in PBS was added to each well of a 384 well ELISA plate and incubated over night at 4° C. […] Subsequently, rabbit anti-NGAL polyclonal antibody at a concentration of 1 μg/mL in PBS/0.1% (w/v) Tween20/2% (w/v) BSA was added, and bound antibody was detected using goat anti-rabbit IgG-HRP in a dilution of 1:5,000 in PBS/0.1% (w/v) Tween20/2% (w/v) BSA. […] Fluorescence signals in RFU (relative fluorescence units) were measured using a plate fluorescence reader.
(In an ELISA, binding on a coated surface is turned into a signal by an enzyme label.)

B1: Anticalin-based CTLA-4 antagonist with Strep-tag II, mature processed secreted form (SEQ ID NO: 28) (designed binder)
chain: QDSTSDLIPAPPLSKVPLQQNFQDNQFQGKWYVVGLAGNRILRQDQHPMLMYATIYELKEDKSYQVTSVISSHKKCLYPIATFVPGSQPGEFTLGNIKSYGDKVSYLVRVVSTNYNQHAMVFFKHADTNYESFSITLYGRTKELTSELKENFIRFSKSLGLPENHIVFPVPIDQCIDGSAWSHPQFEK
notes: also called anti-CTLA-4 Anticalin; αCTLA-4
As to B1, the binding result is on record as “binds”.
